Measured values published in PMC8686473.

Tests used:
Etanercept [1] = molecular target: Etanercept (UniProt P20333); assay: SEC-MALS; formulation after forced degradation (stirring at 600 rpm, 60°C, 2 h); BioResolve SEC mAb column, 50 mM phosphate buffer pH 7, 200 mM KCl, 30°C, 0.5 ml/min
Etanercept [2] = molecular target: Etanercept (UniProt P20333); assay: SEC-MALS; untreated formulation diluted 25 times in water to 2 mg/ml; BioResolve SEC mAb column, 50 mM phosphate buffer pH 7, 200 mM KCl, 30°C, 0.5 ml/min

stoichiometry N (Etanercept [1]): 23
stoichiometry N (Etanercept [2]): 3
Substance: Etanercept (from UniProt P20333 23-257) (Fc fusion)
